Experiment [1] deals with HLA-A*02:01. The experiment can be described thus: IEDB peptide-MHC binding, purified MHC/direct/fluorescence; filed as Kd, often an IC50 or EC50 that approximates it; ≥ and ≤ were set here for values at or beyond the usual limits of such assays. Conditions: source organism: Cryptosporidium parvum Iowa II.
Experiment [2] concerns the target HLA-A*02:03. The description is as above. Conditions: source organism: Cryptosporidium parvum Iowa II.
For experiment [3], the target named is HLA-A*02:11. The experiment is described as above. Particulars: source organism: Cryptosporidium parvum Iowa II.
In experiment [4] the target is HLA-A*02:12. The description is as above. Particulars: source organism: Cryptosporidium parvum Iowa II.
Experiment [5] deals with HLA-A*02:16. The experiment is described as above. Particulars: source organism: Cryptosporidium parvum Iowa II.
Experiment [6] deals with HLA-A*02:19. The description is as above. Conditions: source organism: Cryptosporidium parvum Iowa II.
Experiment [7] deals with HLA-A*03:01. The description is as above. Particulars: source organism: Cryptosporidium parvum Iowa II.
Experiment [8] concerns the target HLA-A*23:01. The description is as above. Particulars: source organism: Cryptosporidium parvum Iowa II.
Experiment [9] has as its target HLA-A*24:03. The description is as above. Particulars: source organism: Cryptosporidium parvum Iowa II.
Experiment [10] concerns the target HLA-A*26:01. The experiment is described as above. Conditions: source organism: Cryptosporidium parvum Iowa II.
The target of experiment [11] is HLA-A*29:02. The experiment is described as above. Particulars: source organism: Cryptosporidium parvum Iowa II.
Experiment [12] has as its target HLA-B*15:01. The description is as above. Conditions: source organism: Cryptosporidium parvum Iowa II.
Experiment [13] concerns the target HLA-B*27:03. Described as above. Conditions: source organism: Cryptosporidium parvum Iowa II.
For experiment [14], the target named is HLA-B*46:01. The experiment is described as above. Conditions: source organism: Cryptosporidium parvum Iowa II.
For experiment [15], the target named is HLA-B*51:01. The experiment is described as above. Conditions: source organism: Cryptosporidium parvum Iowa II.
Experiment [16] has as its target HLA-B*57:01. The description is as above. Particulars: source organism: Cryptosporidium parvum Iowa II.
For experiment [17], the target named is HLA-C*05:01. Described as above. Particulars: source organism: Cryptosporidium parvum Iowa II.
In experiment [18] the target is HLA-A*68:23. The experiment can be described thus: IEDB peptide-MHC binding, purified MHC/competitive/fluorescence; filed as Kd, often an IC50 or EC50 that approximates it; ≥ and ≤ were set here for values at or beyond the usual limits of such assays. Conditions: source organism: Cryptosporidium parvum Iowa II.
Experiment [19] has as its target HLA-B*15:42. The description is as above. Conditions: source organism: Cryptosporidium parvum Iowa II.
Experiment [20] concerns the target HLA-B*45:06. The description is as above. Conditions: source organism: Cryptosporidium parvum Iowa II.
The target of experiment [21] is HLA-B*83:01. The description is as above. Particulars: source organism: Cryptosporidium parvum Iowa II.
Experiment [22] addresses HLA-C*14:02. The experiment is described as above. Particulars: source organism: Cryptosporidium parvum Iowa II.
Experiment [23] deals with HLA-A*26:03. The experiment in a line: IEDB peptide-MHC binding, purified MHC/direct/fluorescence; filed as Kd, often an IC50 or EC50 that approximates it; ≥ and ≤ were set here for values at or beyond the usual limits of such assays. Particulars: source organism: Rickettsia prowazekii.
In experiment [24] the target is HLA-A*02:01. The experiment in a line: IEDB peptide-MHC binding, purified MHC/competitive/fluorescence; ≥ and ≤ were set here for values at or beyond the usual limits of such assays. Particulars: source organism: Monodelphis domestica.
Experiment [25] deals with HLA-A*68:02. The description is as above. Particulars: source organism: Monodelphis domestica.
The target in experiment [26] is HLA-C*08:02. The experiment in a line: IEDB peptide-MHC binding, purified MHC/direct/fluorescence; filed as Kd, often an IC50 or EC50 that approximates it; ≥ and ≤ were set here for values at or beyond the usual limits of such assays. Conditions: source organism: Hylobates lar.

pIC50, pKd: −log10 of the molar value.

Take MPMSMPIPM: the pKd in experiment [1], in [2], in experiment [3], in experiment [4], in experiment [5] and in experiment [6] was at most 4.70 in each case. For the same sequence, the pKd in experiment [7], in [8], in experiment [9], in [10], in [11] and in [12] was at most 4.70 throughout. Also, the pKd in [13] was at most 4.70; in experiment [14], at most 4.70; in [15], 5.23; in experiment [16] it was at most 4.70; in experiment [17] it was at most 4.70; in experiment [18], 8.57. The pKd is at most 5.30 in experiment [19], at most 5.30 in experiment [20], 7.40 in experiment [21] and 6.90 in experiment [22].

GTIIAHGGL: the pKd in experiment [23] is at most 4.70.

In the case of YSLEYFQFV, the pIC50 is 7.23 in experiment [24] and 6.97 in [25]. Also, the pKd in [26] is at most 4.70.

The term pKd denotes the negative decadic logarithm of the Kd, by convention in mol/L. A high value points to a small Kd. The term pIC50 denotes −log10 of the IC50, conventionally taken in molar units. Read a low pIC50 as a high IC50.

For the origin of these results see the Immune Epitope Database (IEDB).
